Experimental data reported in PMC7869511, “Computer-aided design of PVR mutants with enhanced binding affinity to TIGIT” (Cell Communication and Signaling : CCS, 2021).

B1: Fc-fused protein of human TIGIT [human] / wild type human PVR, full length, on CHO-K1 cells [human] (parent complex)
chain 1: MMTGTIETTGNISAEKGGSIILQCHLSSTTAQVTQVNWEQQDQLLAICNADLGWHISPSFKDRVAPGPGLGLTLQSLTVNDTGEYFCIYHTYPDGTYTGRIFLEVLESSVAEHGARFQIP
chain 2: WPPPGTGDVVVQAPTQVPGFLGDSVTLPCYLQVPNMEVTHVSQLTWARHGESGSMAVFHQTQGPSYSESKRLEFVAARLGAELRNASLRMFGLRVEDEGNYTCLFVTFPQGSRSVDIWLRVLAKPQNTAEVQKVQLTGEPVPMARCVSTGGRPPAQITWHSDLGGMPNTSQVPGFLSGTVTVTSLWILVPSSQVDGKNVTCKVEHESFEKPQLLTVNLTVYYPPEVSISGYDNNWYLGQNEATLTCDARSNPEPTGYNWSTTMGPLPPFAVAQGAQLLIRPVDKPINTTLICNVTNALGARQAELTVQVKEGPPSEHSGISRNAIIFLVLGILVFLILLGIGIYFYWSKCSREVLWHCHLCPSSTEHASASANGHVSYSAVSRENSSSQDPQTEGTR

Variants of: B1
Assay: flow cytometry on cells; 120 nM hTIGIT-Fc; CHOK1 cells overexpressing hPVR; parent: 1; read off a plot

Variant	ratio to parent
chain 2 S54W	~1.2
chain 2 S67W	~0.82
chain 2 T45E	~0.1
chain 2 G111V	~1.6
chain 2 G111W	~0.55
chain 2 S112Q	~1.4
chain 2 G111M	~0.93
chain 2 S52W	~1.2
chain 2 S52R	~1.1
chain 2 S112R	~1

Variants of: B1
Assay: flow cytometry on cells; 120 nM hTIGIT-Fc; CHOK1 cells overexpressing hPVR; parent: 3.2e+03; read off a plot

Variant	response [MFI]
chain 2 S67W	~2600
chain 2 T45E	~100
chain 2 G111W	~1700

Variants of: B1
Assay: as above
Remark: another data set of the same source

Variant	response [MFI]
chain 2 G111V	~4900
chain 2 S112Q	~4400
